Assay results as given in patent US7943340B2, “Fungal dipeptidyl peptidase IV (DPPIV) enzyme for reagent use” (priority 2003, dated 2011).
Entries after “also recorded” stand apart in the source; their conditions may differ.

Experiments:
[1] = Aminopeptidase activity assay with fluorogenic aminoacyl-AMC substrates; type: biochemical
Method: (§1) Aminopeptidase activity was determined using different fluorogenic aminoacyl-4-methylcoumaryl-7-amide derivatives of peptides and the internally quenched fluorogenic substrate Lys(Abz)-Pro-Pro-pNA for specific determination of aminopeptidase P activity. Stockel et al, Adv Exp. Med. Biol. 421:31-35 (1997). All substrates were from Bachem (Bubendorf, Switzerland). Substrate stock solutions were prepared at 0.1 M according to the recommendations of the manufacturer and stored at −20° C. The reaction mixture contained a concentration of 5 mM substrate and enzyme preparation (between 56 and 2,662 ng per assay depending on the cleavage activity of each enzyme for the substrates) in 25 μl of 50 mM Tris-HCl buffer adjusted at the optimal pH for each LAP (between 7 and 8). After incubation at 37° C. for 60 min, the reaction was terminated by adding 5 μl of glacial acetic acid and the reaction mixture was diluted with 3.5 ml of water. The released 7-amino-4-methylcoumarin (AMC) was measured using a spectrofluorophotometer (Perkin Elmer LS-5 fluorometer, Zurich, Switzerland) at an excitation wavelength of 370 nm and an emission wavelength of 460 nm. A standard curve made with synthetic AMC was used to assess the released AMC. The released diprolyl-p-nitroanilide was measured at an excitation wavelength of 310 nm and an emission wavelength of 410 nm. The LA activities were expressed in mnoles of released AMC or pNA/min/μg protein.
Table 15 details the hydrolytic activity of different LAPs toward various aminoacyl-MCA comparison (%) to Leu-MCA used as a standard.

[2] = Aminopeptidase P activity assay; type: biochemical; conditions: substrate Lys(Abz)-Pro-Pro-pNA, 5 mM, 37° C., 60 min
Method: as §1

B1: fuLAP1: A. fumigatus leucine aminopeptidase, 388 amino acid residues (SEQ ID NO: 12) (protein, listed as Aspergillus fumigatus)
chain: MKVLTAIALSAIAFTGAVAAVITQEAFLNNPRIHHDQEKYLIELAPYRTRWVTEEEKWALKLDGVNFIDITEEHNTGFYPTLHSASYVKYPPKMQYAEEVAALNKNLSKENMKANLERFTSFHTRYYKSQTGIRSATWLFDQVQRVVSESGAAEYGATVERFSHPWGQFSIIARIPGRTNKTVVLGAHQDSINLFLPSILAAPGADDDGSGTVTILEALRGLLQSDAIAKGNASNTVEFHWYSAEEGGMLGSQAIFSNYKRNRREIKAMLQQDMTGYVQGALNAGVEEAIGIMVDYVDQGLTQFLKDVVTAYCSVGYLETKCGYACSDHTSASKYGYPAAMATEAEMENTNKKIHTTDDKIKYLSFDHMLEHAKLSLGFAFELAFAPF
hydrolysis of Leu-AMC [1]: efficiently hydrolyzed | preference for aminoacyl-AMC substrates compared to Leu-AMC ([1]; Leu-AMC used as a reference): appreciated Arg-, Val-, and Phe-AMC; also recorded: common preference for Leu-AMC as a substrate | hydrolytic activity toward Ala-AMC in comparison (%) to Leu-MCA ([1]; substrate Ala-AMC, 5 mM, 37° C., 60 min): 4.7% | hydrolytic activity toward Arg-AMC in comparison (%) to Leu-MCA ([1]; substrate Arg-AMC, 5 mM, 37° C., 60 min): 53.9% | hydrolytic activity toward Asn-AMC in comparison (%) to Leu-MCA ([1]; substrate Asn-AMC, 5 mM, 37° C., 60 min): 29.4% | hydrolytic activity toward Asp-AMC in comparison (%) to Leu-MCA ([1]; substrate Asp-AMC, 5 mM, 37° C., 60 min): 0.8% | hydrolytic activity toward Cys-AMC in comparison (%) to Leu-MCA ([1]; substrate Cys-AMC, 5 mM, 37° C., 60 min): 5.0% | hydrolytic activity toward Gln-AMC in comparison (%) to Leu-MCA ([1]; substrate Gln-AMC, 5 mM, 37° C., 60 min): 44.9% | hydrolytic activity toward Glu-AMC in comparison (%) to Leu-MCA ([1]; substrate Glu-AMC, 5 mM, 37° C., 60 min): 0.0% | hydrolytic activity toward Gly-AMC in comparison (%) to Leu-MCA ([1]; substrate Gly-AMC, 5 mM, 37° C., 60 min): 0.8% | hydrolytic activity toward Gly-Pro-AMC in comparison (%) to Leu-MCA ([1]; substrate Gly-Pro-AMC, 5 mM, 37° C., 60 min): 5.4% | hydrolytic activity toward His-AMC in comparison (%) to Leu-MCA ([1]; substrate His-AMC, 5 mM, 37° C., 60 min): 0.8% | hydrolytic activity toward Hyp-AMC in comparison (%) to Leu-MCA ([1]; substrate Hyp-AMC, 5 mM, 37° C., 60 min): 3.9% | hydrolytic activity toward Ile-AMC in comparison (%) to Leu-MCA ([1]; substrate Ile-AMC, 5 mM, 37° C., 60 min): 13.2% | hydrolytic activity toward Leu-AMC in comparison (%) to Leu-MCA used as a standard ([1]; substrate Leu-AMC (standard), 5 mM, 37° C., 60 min): 100.0% | hydrolytic activity toward Lys-AMC in comparison (%) to Leu-MCA ([1]; substrate Lys-AMC, 5 mM, 37° C., 60 min): 7.7% | hydrolytic activity toward Met-AMC in comparison (%) to Leu-MCA ([1]; substrate Met-AMC, 5 mM, 37° C., 60 min): 116.9% | hydrolytic activity toward Phe-AMC in comparison (%) to Leu-MCA ([1]; substrate Phe-AMC, 5 mM, 37° C., 60 min): 163.7% | hydrolytic activity toward Pro-AMC in comparison (%) to Leu-MCA ([1]; substrate Pro-AMC, 5 mM, 37° C., 60 min): 12.0% | hydrolytic activity toward Pyr-AMC in comparison (%) to Leu-MCA ([1]; substrate Pyr-AMC, 5 mM, 37° C., 60 min): 0.0% | hydrolytic activity toward Ser-AMC in comparison (%) to Leu-MCA ([1]; substrate Ser-AMC, 5 mM, 37° C., 60 min): 10.3% | hydrolytic activity toward Thr-AMC in comparison (%) to Leu-MCA ([1]; substrate Thr-AMC, 5 mM, 37° C., 60 min): 5.1% | hydrolytic activity toward Val-AMC in comparison (%) to Leu-MCA ([1]; substrate Val-AMC, 5 mM, 37° C., 60 min): 27.6% | hydrolytic activity toward Lys(Abz) Pro-PropNA in comparison (%) to Leu-MCA [2]: 0.0%
